B1: Copia^GagΔNC (domain or fragment)
chain: not shown
notes: Copia retrotransposon Gag, Drosophila, capsid (CA) region only; residue H186 mutated to a stop codon in the pSMT3_His6-SUMO-Copia^Gag+PR plasmid, so the chain ends at residue 185 and lacks the NC (Zn-finger) domain; also called Copia^gag-ΔNC variant; not shown: His6-SUMO, N-terminal, cleaved
B2: Copia^Gag capsid protein (wild type), auto-processed from His6-SUMO-Copia^Gag+PR (natural protein)
chain: not shown
notes: Copia retrotransposon Gag (capsid CA, residues 1-186, and nucleocapsid NC, residues 186-270), Drosophila; product of auto-processing of the short spliced form Copia^Gag+PR, whose protease part is cut off in E. coli; Limits 1-270 put together from the stated CA (1-186) and NC (186-270) domains; the cleavage site between Gag and PR is not otherwise stated; Carries co-purified RNA unless this is …

Assays:
[1] = molecular target: B2; experiment: SEC; Superose 6 Increase 10/300 GL after overnight Ulp1 digestion; 25 mM HEPES pH 7.4, 150 mM NaCl, 10% glycerol, 100 uM ZnCl2, 500 mM imidazole, 2 mM 2-mercaptoethanol; assembled capsids elute at fraction 7, unassembled protein at fractions 24 to 26; settings: both partners purified
[2] = molecular target: the molecule itself; experiment: negative-stain EM; purified Copia^Gag after removal of His6-SUMO, with co-purified RNA, 0.8 mg/ml, 1% uranyl acetate; capsid-like particles of 30 nm to more than 120 nm

Binder: B1
- binding result [1]: binds

Binder: B2
- binding result [2]: binds
